Here are results for four substances from patent publication US20060088549A1, “Chimeric virus vaccine” (priority 2004, published 2006).

Entries after “also recorded” stand apart in the source; their conditions may differ.

The subject of one experiment is 2F5. The following applies: cited from earlier work; for binding/affinity to 2F5 relative to the LELDKWASL peptide: Tian, 2003.
Experiment [1] addresses HRV14:HIV-1 gp41 […] chimeric virus 14-C1000-1. Nature of the experiment: cell-based or functional assay.
In experiment [2] the target is HRV14:HIV-1 gp41 […] chimeric virus 44-B64-14. Nature of the experiment: cell-based or functional assay.
Experiment [3] addresses HRV14:HIV-1 gp41 […] chimeric virus 44-B64-12. Nature of the experiment: cell-based or functional assay.
For experiment [4], the target named is HRV14:HIV-1 gp41 […] chimeric virus 64-C16-2. Briefly: cell-based or functional assay.
In experiment [5] the target is HRV14:HIV-1 gp41 […] chimeric virus 44-BN7500-4. Briefly: cell-based or functional assay.
In experiment [6] the target is HRV14:HIV-1 gp41 […] chimeric virus 44-B4000-13. Nature of the experiment: cell-based or functional assay.
Experiment [7] deals with HRV14:HIV-1 gp41 […] chimeric virus 14-B128-22. Nature of the experiment: cell-based or functional assay.
Experiment [8] deals with HRV14:HIV-1 gp41 […] chimeric virus 44-B256-2. Nature of the experiment: cell-based or functional assay.
Experiment [9] has as its target HRV14:HIV-1 gp41 […] chimeric virus 24-AN15000-3. Nature of the experiment: cell-based or functional assay.
Experiment [10] concerns the target HRV14:HIV-1 gp41 […] chimeric virus 64-B32-4. Briefly: cell-based or functional assay.
Experiment [11] concerns the target HRV14:HIV-1 gp41 […] chimeric virus 22-AN15000-8. Nature of the experiment: cell-based or functional assay.
The target of experiment [12] is HRV14:HIV-1 gp41 […] chimeric virus 64-C32-3. Nature of the experiment: cell-based or functional assay.
In experiment [13] the target is HRV14:HIV-1 gp41 […] chimeric virus 64-B256-2. Briefly: cell-based or functional assay.
Experiment [14] deals with HRV14:HIV-1 gp41 […] chimeric virus 14-C512-2. Nature of the experiment: cell-based or functional assay.
Experiment [15] deals with HRV14:HIV-1 gp41 […] chimeric virus 14-C4000-1 (human rhinovirus type 14) (UniProt P03303). Briefly: cell-based or functional assay.
In experiment [16] the target is HRV14:HIV-1 gp41 […] chimeric virus 44-BN30000-2. Briefly: cell-based or functional assay.
For experiment [17], the target named is HRV14:HIV-1 gp41 […] chimeric virus 44-BN30000-9. Nature of the experiment: cell-based or functional assay.
The target of experiment [18] is HRV14:HIV-1 gp41 […] chimeric virus 44-C4000-4 (human rhinovirus type 14) (UniProt P03303). Briefly: cell-based or functional assay.
The target in experiment [19] is HRV14:HIV-1 gp41 […] chimeric virus 14-B64-5. Briefly: cell-based or functional assay.
The target of experiment [20] is HRV14:HIV-1 gp41 […] chimeric virus 14-B128-23. Nature of the experiment: cell-based or functional assay.
Experiment [21] concerns the target HRV14:HIV-1 gp41 […] chimeric virus 14-C4000-14. Nature of the experiment: cell-based or functional assay.
Experiment [22] concerns the target HRV14:HIV-1 gp41 […] chimeric virus 64-B32-3. Nature of the experiment: cell-based or functional assay.
Experiment [23] has as its target HRV14:HIV-1 gp41 […] chimeric virus 44-B64-4. Briefly: cell-based or functional assay.
Experiment [24] concerns the target HRV14:HIV-1 gp41 […] chimeric virus 14-B128-12. Nature of the experiment: cell-based or functional assay.
The target of experiment [25] is HRV14:HIV-1 gp41 […] chimeric virus 14-C512-3. Nature of the experiment: cell-based or functional assay.
The target of experiment [26] is Biotin-conjugated …-NH2 (HIV-1). Briefly: direct ELISA, IgG on immobilized biotinylated …. The following applies: scale: reciprocal dilution of 1 mg/ml IgG at OD450 of 0.5. For orientation: ELISA stands for enzyme-linked immunosorbent assay.

“Ac-CNEQELLEKDKWADL-NH2 (lactam (positions not given here); also: lactam bridge between underlined K and D, places not given here) [Lac-1, constrained peptide with a lactam bridge between K and D residues]”: the “binding/affinity to 2F5 relative to the LELDKWASL peptide” value with 2F5 is “higher affinities to 2F5; also recorded: two times more tightly”.

As for LELDKWASL, the “binding to 2F5 in an ELISA relative to the shorter ELDKWAS peptide” value in the experiment with 2F5 (Tian et al., 2002) is listed as approximately 100 fold.

Regarding human mAb 2F5 (antibody), the 2F5 IC50, microtiter neutralization assay came to 1.5 µg/mL in experiment [1]; 0.16 µg/mL in [2]; 0.21 µg/mL in experiment [3]; 0.07 µg/mL in experiment [4]; 0.01 µg/mL in experiment [5]; 0.24 µg/mL in experiment [6]. The 2F5 IC50, microtiter neutralization assay in experiment [7] stood at 0.57 µg/mL; in experiment [8], 0.31 µg/mL; in experiment [9] it was 1.5 µg/mL; in experiment [10], 0.49 µg/mL; in experiment [11], 8.2 µg/mL; in experiment [12], 0.05 µg/mL. Besides, the 2F5 IC50, microtiter neutralization assay in [13] amounted to 0.23 µg/mL; in experiment [14], 0.05 µg/mL; in experiment [15], 0.98 µg/mL; in [16], 0.01 µg/mL; in experiment [17] it was 0.02 µg/mL; in experiment [18], 0.66 µg/mL. Besides, the 2F5 IC50, microtiter neutralization assay in experiment [19] turned out to be 0.29 µg/mL; in experiment [20], 5.9 µg/mL; in experiment [21], 0.64 µg/mL; in experiment [22], 0.05 µg/mL; in experiment [23], 0.06 µg/mL; in [24], 0.49 µg/mL. The 2F5 IC50, microtiter neutralization assay in [25] worked out at 3 µg/mL. In addition, in experiment [26], the … binding amounted to 2400.

Turning to Ac-CENEQELLELDKWASL-NH2 [Linear-1], the “binding/affinity to 2F5 relative to the LELDKWASL peptide” value in the experiment with 2F5 is “higher affinities to 2F5”.
